# B1: EML4-ALK fusion polypeptide v3 having the FLAG tag at the N-terminus (protein)
# chain: MDGFAGSLDDSISAASTSDVQDRLSALESRVQQQEDEITVLKAALADVLRRLAISEDHVASVKKSVSSKGQPSPRAVIPMSCITNGSGANRKPSHTSAVSIAGKETLSSAAKSGTEKKKEKPQGQREKKEESHSNDQSPQIRASPSPQPSSQPLQIHRQTPESKNATPTKSIKRPSPAEKSHNSWENSDDSRNKLSKIPSTPKLIPKVTKTADKHKDVIINQAKMSTRKKNSQVYRRKHQELQAMQMELQSPEYKLSKLRTSTIMTDYNPNYCFAGKTSSISDLKEVPRKNITLIRGLGHGAFGEVYEGQVSGMPNDPSPLQVAVKTLPEVCSEQDELDFLMEALIISKFNHQNIVRCIGVSLQSLPRFILLELMAGGDLKSFLRETRPRPSQPSSLAMLDLLHVARDIACGCQYLEENHFIHRDIAARNCLLTCPGPGRVAKIGDFGMARDIYRASYYRKGGCAMLPVKWMPPEAFMEGIFTSKTDTWSFGVLLWEIFSLGYMPYPSKSNQEVLEFVTSGGRMDPPKNCPGPVYRIMTQCWQHQPEDRPNFAIILERIEYCTQDPDVINTALPIEYGPLVEEEEKVPVRPKDPEGVPPLLVSQQAKREEERSPAAPPPLPTTSSGKAAKKPTAAEVSVRVPRGPAVEGGHVNMAFSQSNPPSELHRVHGSRNKPTSLWNPTYGSWFTEKPTKKNNPIAKKEPHERGNLGLEGSCTVPPNVATGRLPGASLLLEPSSLTANMKEVPLFRLRHFPCGNVNYGYQQQGLPLEAATAPGAGHYEDTILKSKNSMNQPGP
# Target: TK substrate 1 (HTRF KinEASE-TK kit; Cisbio Inc.)
protein,measurement,value
B1,"count of HTRF (phosphorylation of the peptide substrate), 100 uM ATP against no ATP",increased by about 20 times by the addition of ATP compare to no addition of ATP
